Experimental data: patent publication US20230122503A1 (Janssen / Centocor, published 2023)
Positions count from the first letter of the chain named.

B1: PSMB1157 conjugated to maleimide-PEG4-vcPAB-MMAF (antibody, human IgG1, lambda, V domains shown)
VH: EVQLVESGGGVVQPGRSLRLSCAASVRTFSGYGMHWVRQVPGKGLEWVAVISYDGSNRYYADSVKGRFTISRDNSKNTLYLQMNSLRTEDTAVYYCARDGNWGSLDLYFDLWGRGTLVTVSS
VL: QSVLTQPPSVSGAPGQRVTISCTGSSSNIGADYDVHWYQQLPGTAPKLLIYVNNNRPSGVPDRFSGSRSGTSASLAITGLQADDEADYYCQSYDNTLSGVVFGGGTKLTVLG
modifications: maleimide-PEG4-vcPAB-MMAF and N-ethyl maleimide on reduced cysteines (sites not given)
B2: PSMB1157 (antibody, human IgG1, lambda, V domains shown)
VH: B1 VH
VL: B1 VL
notes: huIgG1, lambda light chain
B3: PSMB1157 conjugated to MC-GGFG-DX8951 (antibody, human IgG1, lambda, V domains shown)
VH: B1 VH
VL: B1 VL
modifications: MC-GGFG-DX8951 on reduced cysteines, DAR 8.0
B4: PSMB1195 (antibody, human IgG1, kappa, V domains shown)
VH: EVQLVESGGGLVKPGGSLRLSCAASGFTFSSYSLNWVRQAPGKGLEWVSSISSSSSYISYADAVKGRFTISRDNAKNSLYLQMNSLRAEDTAVYYCARDRGFLEDYYYYYGMDVWGQGTTVTVSS
VL: DIVMTQSPSSVSASVGDRVTITCRASQGISNWLAWYQQKPGKAPKLLIYVASSLQSGVPSRFSGSGSGTDFSLTISSLQPEDFATYYCQQAYSFPLTFGGGTKVEIKR
notes: huIgG1, kappa light chain
B5: PSMB1098 (antibody, human IgG1, kappa, V domains shown)
VH: QVQLVESGGGVVQPGRSLRLSCAASGFTFSTYGMHWVRQAPGKGLEWVAFISYDGSNKYYADSVKGRFTISRDNSKHTLYLQMNSLRAEDTAVYYCAGRDNLRFLEWFMDVWGQGTTVTVSS
VL: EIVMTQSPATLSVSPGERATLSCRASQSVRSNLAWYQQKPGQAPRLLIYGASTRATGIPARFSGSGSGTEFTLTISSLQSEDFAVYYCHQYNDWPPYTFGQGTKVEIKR
notes: huIgG1, kappa light chain
B6: PSMB1154 conjugated to MC-GGFG-DX8951 (antibody, human IgG1, lambda, V domains shown)
VH: EVQLVESGGGEVQPGRSLRLTCAVSGFTLSRYGMHWVRQAPGKGLEWAALISYDGSNRYYADSVKGRFTISRDNSKNTVFLQMNSLRAEDTAVYYCARERESSGWFEGYFDYWGQGTTVTVSS
VL: QLVLTQPPSVSVAPGQTARITCGGNNIGSKSVHWYQQKPGQAPVLVVYDNSDRPSGIPERFSGSNSGNTATLTISRVEVGDEADYYCQVWDSSSDHVVFGGGTKLTVLG
modifications: MC-GGFG-DX8951 on reduced cysteines, DAR 8.0
B7: PSMB1154 conjugated to maleimide-PEG4-vcPAB-MMAF (antibody, human IgG1, lambda, V domains shown)
VH: B6 VH
VL: B6 VL
modifications: maleimide-PEG4-vcPAB-MMAF and N-ethyl maleimide on reduced cysteines (sites not given)
B8: PSMB1154 (antibody, human IgG1, lambda, V domains shown)
VH: B6 VH
VL: B6 VL
notes: huIgG1, lambda light chain
B9: PSMB1183 conjugated to maleimide-PEG4-vcPAB-MMAF (antibody, human IgG1, lambda, V domains shown)
VH: QVQLQESGPGLVKSSETLSLTCTVSGGSISSYYWNWIRQPAGKGLEWIGRIYSSGNTDYNPSLKSRVTMSVDTSKNQFSLKLISVTAADTAVYYCARGRGANVGLFDYWGQGTLVTVSS
VL: QSALTQPPSVSGAPGQRVTISCTGSNSNIGANYDVHWYQHLPGTAPKLLIYGNINRPLGVPDRFSGSRSGTSASLAITGLQAEDEADYYCQSYDFSLSGSVFGVGTKLTVLG
modifications: maleimide-PEG4-vcPAB-MMAF and N-ethyl maleimide on reduced cysteines (sites not given)
B10: PSMB1183 conjugated to MC-GGFG-DX8951 (antibody, human IgG1, lambda, V domains shown)
VH: B9 VH
VL: B9 VL
modifications: MC-GGFG-DX8951 on reduced cysteines, DAR 8.0
B11: PSMB1183 (antibody, human IgG1, lambda, V domains shown)
VH: B9 VH
VL: B9 VL
notes: huIgG1, lambda light chain
B12: PSMB1156 conjugated to maleimide-PEG4-vcPAB-MMAF (antibody, human IgG1, lambda, V domains shown)
VH: EVQLVESGGGVVQPGRSLRLSCAASGFTFTSYGMHWVRQAPGKGLEWVAVISYDGSNKYYADSVKGRFTISRDNSKNTLYLQMNSLRAEDTAVYYCAREHYDSSGYYHGYYGMDVWGQGTTVTVSS
VL: not shown
modifications: maleimide-PEG4-vcPAB-MMAF and N-ethyl maleimide on reduced cysteines (sites not given)
B13: PSMB1156 (antibody, human IgG1, lambda, V domains shown)
VH: B12 VH
VL: not shown
notes: huIgG1, lambda light chain
B14: PSMB1156 conjugated to MC-GGFG-DX8951 (antibody, human IgG1, lambda, V domains shown)
VH: B12 VH
VL: not shown
modifications: MC-GGFG-DX8951 on reduced cysteines, DAR 8.0
B15: PSMB1088 (antibody, human IgG1, kappa, V domains shown)
VH: EVQLVESGGGVVQPGRSLRLSCAASGFTFSSYDMHWVRQAPGKGLEWVTVISFDGSNKYYVDSVKGRFTISRDNSKNTLYLQMNSLRAEDTAVYYCARTYYDILTGYSHYSYGMDVWGQGTTVTVSS
VL: EIVMTQSPSSLSASVGDRVTITCRASQGISNYLAWYQQKPGKVPKLLIYATSTLQSGVPSRFSGSGSGTDFILTISSLQPEDVANYYCQKYNSAPFTFGPGTKVEIKR
notes: huIgG1, kappa light chain
B16: PSMB1113 (antibody, human IgG1, kappa, V domains shown)
VH: EVQLVESGGGLVKPGGSLRLSCAASGFTLSIYSMNWVRQAPGKGLEWVSSISSSSSYIFYADSVKGRFTISRDNAKNSLFLQMNSLRAEDTAVYYCARSSYGADYWGQGTLVTVSS
VL: B15 VL with G28D, S30T, Y32F, A50T, T51A, I72T, N85T, F96L, P100G, V104L
notes: huIgG1, kappa light chain

How the values were obtained:
[1] = target: T1, human prostate-specific membrane antigen (PSMA), full length, on cells (human, UniProt Q04609 1-750); assay: cell-based or functional assay
[2] = target: T1, human prostate-specific membrane …; assay: flow cytometry on C4-2B cells (high PSMA), anti-human AF647 detection, four-parameter fit
Experimental: The affinity of the purified antibodies was also determined on C4-2B, a cell line with high PSMA levels. Briefly, C4-2B cells were washed once with 1×PBS and incubated with 3 mls/T150 flask of cell dissociation buffer until detached, the cells were collected and strained through a […] sieve. Cells were resuspended at 0.5×10e6 cells/mL in staining buffer (BD #554657) and seeded at 25,000 cells/well in V bottom plate (Corning 3894). To each well, 50 μl of Ab 4-fold serially diluted in staining buffer from 120 nM (60 nM final) were added at 2× final concentration. Control mAbs were added at 2 μg/ml, 1 μg/ml final (controls were: —secondary only and isotype control). All primary antibodies were incubated with the cells for 60 min at 4° C. After the primary incubation, 100 μl staining buffer were added to all wells and the cells were washed by pelleting by centrifugation at 300×g 5 min and buffer removed by flicking the plate. Then cells were similarly washed again with 200 μl staining buffer. […] After 30 minutes incubation at 4° C., the cells were washed as described above with 150 ul staining buffer, followed by a final wash with 200 ul running buffer (Running buffer is staining buffer plus 1 mM EDTA and 0.1% pluronic acid). Cells were resuspended in 30 ul/well running buffer with 1:1000 Sytox Blue viability stain (Invitrogen #S34857) and stored at 4° C. until read on the flow cytometer. Plates were read on an IntelliCyt IQue 3 instrument. Briefly, cells were gated on live cells, then populations were gated on singlets. Antibody binding was assessed by AF647 fluorescence at 647 nm. Data was analyzed in GeneData Screener with signal/background AF647 fluorescence plotted against antibody concentration.

[3] = target: T2, PSMW39, human PSMA ECD (Lys44-Ala750), N-6xHis (human, UniProt Q04609 44-750); assay: SPR (Biacore 8K), antibody captured on goat anti-Fc C1 chip, PSMA ECD as analyte, 1:1 Langmuir fit
T2 construct: Made in Expi-CHO cells; also called PSMW39.002; recombinant human ECD
Experimental: The binding affinity of purified anti-PSMA antibodies to the recombinant human ECD was determined by surface plasmon resonance (SPR) using a BIACORE 8K instrument. The antibodies were captured on a goat anti-Fc antibody-modified C1 chip and titrated with 3-fold serial dilutions of PSMA antigen spanning concentrations of 1 nM to 11.1 nM. The association and dissociation were monitored for 3 and 15 minutes, respectively, using a flow rate of 50 μL/min. Raw binding data was referenced by subtracting the analyte binding signals from blanks and analyzed using a 1:1 Langmuir binding model using the Biacore Insight evaluation software to obtain the kinetics which were used to calculate the binding affinity.

[4] = target: T1, human prostate-specific membrane …; assay: cell-based or functional assay; remark: listed apart in the source

T2 sequence (Q04609 other isoform, or with tags, fused parts or gaps): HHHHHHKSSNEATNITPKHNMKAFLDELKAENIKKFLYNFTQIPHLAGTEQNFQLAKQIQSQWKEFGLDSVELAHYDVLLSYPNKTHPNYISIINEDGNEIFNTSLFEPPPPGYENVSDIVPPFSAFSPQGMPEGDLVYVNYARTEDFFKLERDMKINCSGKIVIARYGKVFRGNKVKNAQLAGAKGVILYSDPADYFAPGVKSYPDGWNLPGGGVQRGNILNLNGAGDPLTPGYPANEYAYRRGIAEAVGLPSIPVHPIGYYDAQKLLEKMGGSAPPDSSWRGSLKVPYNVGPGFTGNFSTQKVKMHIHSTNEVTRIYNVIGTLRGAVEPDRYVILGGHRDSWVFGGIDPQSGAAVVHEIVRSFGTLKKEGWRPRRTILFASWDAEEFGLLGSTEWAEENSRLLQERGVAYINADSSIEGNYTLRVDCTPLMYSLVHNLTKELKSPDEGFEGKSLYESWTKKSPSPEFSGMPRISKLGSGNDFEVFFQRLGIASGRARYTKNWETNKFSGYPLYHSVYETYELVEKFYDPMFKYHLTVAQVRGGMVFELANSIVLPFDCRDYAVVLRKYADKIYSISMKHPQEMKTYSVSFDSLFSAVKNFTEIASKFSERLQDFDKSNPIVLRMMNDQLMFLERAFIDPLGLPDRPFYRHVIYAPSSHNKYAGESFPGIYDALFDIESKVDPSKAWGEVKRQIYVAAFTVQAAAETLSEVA
T1 sequence (Q04609 whole entry): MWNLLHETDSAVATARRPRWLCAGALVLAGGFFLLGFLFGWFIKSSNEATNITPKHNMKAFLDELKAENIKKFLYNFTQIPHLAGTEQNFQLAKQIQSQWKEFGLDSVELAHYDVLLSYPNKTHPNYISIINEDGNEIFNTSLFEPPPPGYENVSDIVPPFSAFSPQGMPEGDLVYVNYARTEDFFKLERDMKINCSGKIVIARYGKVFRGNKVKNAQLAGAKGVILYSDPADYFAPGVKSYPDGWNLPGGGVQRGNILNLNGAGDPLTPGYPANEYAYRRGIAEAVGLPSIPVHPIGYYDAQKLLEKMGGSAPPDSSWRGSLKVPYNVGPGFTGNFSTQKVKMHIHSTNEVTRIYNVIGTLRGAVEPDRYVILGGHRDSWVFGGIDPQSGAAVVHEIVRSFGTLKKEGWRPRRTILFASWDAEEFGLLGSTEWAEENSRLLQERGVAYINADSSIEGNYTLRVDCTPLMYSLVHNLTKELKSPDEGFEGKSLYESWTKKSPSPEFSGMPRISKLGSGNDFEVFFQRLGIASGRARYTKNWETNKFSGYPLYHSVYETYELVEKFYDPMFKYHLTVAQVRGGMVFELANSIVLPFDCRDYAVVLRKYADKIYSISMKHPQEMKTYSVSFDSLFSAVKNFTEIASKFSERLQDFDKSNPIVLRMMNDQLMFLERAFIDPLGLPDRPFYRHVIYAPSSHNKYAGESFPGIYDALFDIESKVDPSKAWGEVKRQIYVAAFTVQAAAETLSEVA

Binder	EC50 [2]	Kd [3]	koff [3]	kon [3]	other results
B1	–	–	–	–	C4-2B IC50 (cytotoxicity, vcMMAF ADC, DAR 3.6, 72 h) [1]: 0.03 nM
B2	0.381 nM	1.42 nM	0.000274 s⁻¹	194000 M⁻¹ s⁻¹	–
B3	–	–	–	–	IC50 (cytotoxicity on 22RV1 cells, DX8951 ADC, DAR 8, 6 d) [4]: 2.2 nM
B4	13.8 nM	9.45 nM	0.000101 s⁻¹	10700 M⁻¹ s⁻¹	–
B5	2.46 nM	0.54 nM	2.85e-05 s⁻¹	52700 M⁻¹ s⁻¹	–
B6	–	–	–	–	IC50 (cytotoxicity on 22RV1 cells, DX8951 ADC, DAR 8, 6 d) [4]: 0.8 nM
B7	–	–	–	–	C4-2B IC50 (cytotoxicity, vcMMAF ADC, DAR 4, 72 h) [1]: 0.03 nM
B8	0.306 nM	1.09 nM	0.00019 s⁻¹	174000 M⁻¹ s⁻¹	–
B9	–	–	–	–	C4-2B IC50 (cytotoxicity, vcMMAF ADC, DAR 3.6, 72 h) [1]: 0.03 nM
B10	–	–	–	–	IC50 (cytotoxicity on 22RV1 cells, DX8951 ADC, DAR 8, 6 d) [4]: 0.7 nM
B11	0.156 nM	0.928 nM	0.000401 s⁻¹	432000 M⁻¹ s⁻¹	–
B12	–	–	–	–	C4-2B IC50 (cytotoxicity, vcMMAF ADC, DAR 2.9, 72 h) [1]: 0.04 nM
B13	0.633 nM	0.548 nM	0.000168 s⁻¹	306000 M⁻¹ s⁻¹	–
B14	–	–	–	–	IC50 (cytotoxicity on 22RV1 cells, DX8951 ADC, DAR 8, 6 d) [4]: 1.4 nM
B15	12.4 nM	0.97 nM	2.85e-05 s⁻¹	29400 M⁻¹ s⁻¹	–
B16	2.52 nM	1.16 nM	6.65e-05 s⁻¹	57300 M⁻¹ s⁻¹	–
